B1: PD1-41C9 (antibody, V domains shown)
VH: QMQLVESGGGVVQPGRSLRLSCAASGFTFSSYAMHWVRQAPGKGLEWVAVISYDGSNKYYADSVKGRFTISRDNSKNTLYLQMNRLRSEDTAVYYCTTTTFDSWGQGTLITVSS
VL: DIVMTQTPLSLPVTPGEAASISCRSSQSLLDSEDGNTYLDWYLQKPGQSPQLLIYTLSHRASGVPDRFSGSGSGTDFTLKISRVAAEDVGLYYCLQRMGFPYTFGQGTKLDIK
notes: scFv-phage in the screening ELISA; whole IgG in the other assays
B2: PD1-49A2 (antibody, V domains shown)
VH: B1 VH with M2V, S75P, R85S, S88A, Q106R, I110V
VL: B1 VL with T7S, A18P, L30F, E33D, A85E, L91I, L110V, D111E
notes: scFv-phage in the screening ELISA; whole IgG in the other assays; also called Parent 49A2
B3: PD1-45D6 (antibody, V domains shown)
VH: QVQLVESGGGVVQPGRSLRLSCAASGFTFSSYAMHWVRQVPGKGLEWVAVISYDGNDKYYADSVKGRFTISRDNSKNTLYLQMNSLRAEDTAVYYCVPTTFEYWGQGSQVTVSS
VL: DIVMTQTPLSLPVTPGEAASISCRSSQSLLDSDDGKTYLDWYLQKPGQSPQLLIYTLSYRASGVPDRFSGSGSGTEFNLRISRVEAEDVGIYYCMQRVEFPFTFGQGTKLDIK
notes: as for B1

Positions count from the first letter of the chain named.

For one assay, the target named is T1, CD320 (Homo sapiens (Human), UniProt Q9NPF0 36-229).
T1 sequence: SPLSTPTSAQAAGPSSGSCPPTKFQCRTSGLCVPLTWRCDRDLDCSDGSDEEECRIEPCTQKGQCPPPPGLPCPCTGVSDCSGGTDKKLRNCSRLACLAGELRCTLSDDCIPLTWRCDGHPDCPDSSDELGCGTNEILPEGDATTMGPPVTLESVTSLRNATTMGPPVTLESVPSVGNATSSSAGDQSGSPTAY
Nature of the assay: ELISA. A general note: An ELISA detects its analyte on a solid surface through an enzyme-linked reagent.
As for B1, the binding result is on record as “no binding (tested: 1 ug/ml)”.

Take B2: the binding result was “no binding (tested: 1 ug/ml)”.

On to B3, for which the binding result was “no binding (tested: 1 ug/ml)”.

A further assay deals with T2, EV12A (Homo sapiens (Human), UniProt P22794 31-133).
T2 sequence: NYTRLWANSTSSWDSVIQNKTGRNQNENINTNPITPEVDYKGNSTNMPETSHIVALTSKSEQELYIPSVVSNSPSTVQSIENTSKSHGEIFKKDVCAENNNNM
The experiment in a line: ELISA.
For the molecule B1, the binding result is “no binding (tested: 1 ug/ml)”.

In the case of B2, the binding result is listed as “no binding (tested: 1 ug/ml)”.

Regarding B3, the binding result is reported as “no binding (tested: 1 ug/ml)”.

Another assay deals with T3, CD86 (Homo sapiens (Human), UniProt P42081 24-247).
T3 sequence: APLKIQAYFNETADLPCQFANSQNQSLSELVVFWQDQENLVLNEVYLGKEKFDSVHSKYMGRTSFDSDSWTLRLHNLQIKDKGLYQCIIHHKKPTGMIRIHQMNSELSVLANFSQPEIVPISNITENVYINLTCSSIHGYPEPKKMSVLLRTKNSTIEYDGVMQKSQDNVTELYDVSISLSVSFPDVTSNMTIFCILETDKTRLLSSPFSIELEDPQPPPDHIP
The experiment in a line: ELISA.
B1: the binding result is “no binding (tested: 1 ug/ml)”.

For the molecule B2, the binding result is “no binding (tested: 1 ug/ml)”.

Regarding B3, the binding result is “no binding (tested: 1 ug/ml)”.

The target in another assay is T4, OPTC (Homo sapiens (Human), UniProt Q9UBM4 20-332).
T4 sequence: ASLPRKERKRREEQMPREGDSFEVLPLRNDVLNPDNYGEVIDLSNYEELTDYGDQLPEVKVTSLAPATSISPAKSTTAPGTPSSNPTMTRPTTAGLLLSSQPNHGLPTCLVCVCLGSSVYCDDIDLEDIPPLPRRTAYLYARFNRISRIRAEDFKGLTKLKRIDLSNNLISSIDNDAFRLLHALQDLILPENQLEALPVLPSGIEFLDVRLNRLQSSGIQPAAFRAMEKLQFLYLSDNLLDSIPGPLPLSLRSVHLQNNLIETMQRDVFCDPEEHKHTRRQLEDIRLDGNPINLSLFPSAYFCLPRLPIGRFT
The experiment in a line: ELISA.
For the molecule B1, the binding result is on record as “no binding (tested: 1 ug/ml)”.

Regarding B2, the binding result is “no binding (tested: 1 ug/ml)”.

Turning to B3, the binding result is listed as “no binding (tested: 1 ug/ml)”.

The target in another assay is T5, TLR9 (Homo sapiens (Human), UniProt Q9NR96 26-818).
T5 sequence: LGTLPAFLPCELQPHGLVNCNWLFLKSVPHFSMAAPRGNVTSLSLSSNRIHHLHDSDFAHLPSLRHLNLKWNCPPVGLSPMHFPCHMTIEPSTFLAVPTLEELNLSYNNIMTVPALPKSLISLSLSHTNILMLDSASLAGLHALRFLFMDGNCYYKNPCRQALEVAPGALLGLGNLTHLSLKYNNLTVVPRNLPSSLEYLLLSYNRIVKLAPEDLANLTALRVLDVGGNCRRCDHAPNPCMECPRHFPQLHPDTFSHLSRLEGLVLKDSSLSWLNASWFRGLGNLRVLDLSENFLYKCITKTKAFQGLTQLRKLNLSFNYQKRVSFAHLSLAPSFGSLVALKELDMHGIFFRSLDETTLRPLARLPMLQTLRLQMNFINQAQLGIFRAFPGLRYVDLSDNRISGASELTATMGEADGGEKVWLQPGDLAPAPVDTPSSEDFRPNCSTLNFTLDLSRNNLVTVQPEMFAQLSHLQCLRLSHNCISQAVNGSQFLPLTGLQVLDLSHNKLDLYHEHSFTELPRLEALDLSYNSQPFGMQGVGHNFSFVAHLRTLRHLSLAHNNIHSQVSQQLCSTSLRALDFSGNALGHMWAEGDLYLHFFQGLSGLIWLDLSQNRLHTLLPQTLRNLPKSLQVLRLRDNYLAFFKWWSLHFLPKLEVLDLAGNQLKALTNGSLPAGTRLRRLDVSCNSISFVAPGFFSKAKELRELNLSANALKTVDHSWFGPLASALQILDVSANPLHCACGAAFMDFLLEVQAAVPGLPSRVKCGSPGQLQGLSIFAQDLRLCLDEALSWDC
Nature of the assay: ELISA.
In the case of B1, the binding result is “no binding (tested: 1 ug/ml)”.

Turning to B2, the binding result was “no binding (tested: 1 ug/ml)”.

Take B3: the binding result is reported as “no binding (tested: 1 ug/ml)”.

The target of another assay is LRRN1 (Homo sapiens (Human), UniProt Q6UXK5 26-631). Nature of the assay: ELISA.
Sequence of LRRN1 (Q6UXK5 26-631 limits assumed): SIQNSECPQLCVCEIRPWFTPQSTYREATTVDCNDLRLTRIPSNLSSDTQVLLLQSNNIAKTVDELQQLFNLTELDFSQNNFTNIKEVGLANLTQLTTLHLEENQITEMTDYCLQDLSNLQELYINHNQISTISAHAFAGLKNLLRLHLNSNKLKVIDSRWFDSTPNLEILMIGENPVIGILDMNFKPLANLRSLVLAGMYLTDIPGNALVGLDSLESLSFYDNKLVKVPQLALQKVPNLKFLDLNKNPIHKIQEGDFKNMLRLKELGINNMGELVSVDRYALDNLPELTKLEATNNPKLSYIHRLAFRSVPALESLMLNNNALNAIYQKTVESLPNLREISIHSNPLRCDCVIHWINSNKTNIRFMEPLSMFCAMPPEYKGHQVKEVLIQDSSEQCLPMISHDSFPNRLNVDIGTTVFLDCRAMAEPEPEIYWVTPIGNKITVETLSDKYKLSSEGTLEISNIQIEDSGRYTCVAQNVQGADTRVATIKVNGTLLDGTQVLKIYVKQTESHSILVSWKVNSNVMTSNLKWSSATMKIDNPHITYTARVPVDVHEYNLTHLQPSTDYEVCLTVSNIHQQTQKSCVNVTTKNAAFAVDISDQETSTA
Turning to B1, the binding result was “no binding (tested: 1 ug/ml)”.

In the case of B2, the binding result was “no binding (tested: 1 ug/ml)”.

In the case of B3, the binding result was “no binding (tested: 1 ug/ml)”.

The next assay addresses T6, FZD10 (Homo sapiens (Human), UniProt Q9ULW2 21-225).
T6 sequence: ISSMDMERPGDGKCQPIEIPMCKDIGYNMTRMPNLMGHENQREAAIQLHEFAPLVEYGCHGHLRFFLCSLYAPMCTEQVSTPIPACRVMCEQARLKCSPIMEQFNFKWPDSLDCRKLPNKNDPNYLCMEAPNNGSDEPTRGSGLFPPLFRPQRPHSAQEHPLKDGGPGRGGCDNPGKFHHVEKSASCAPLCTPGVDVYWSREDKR
The experiment in a line: ELISA.
For B1, the binding result is “no binding (tested: 1 ug/ml)”.

Take B2: the binding result is listed as “no binding (tested: 1 ug/ml)”.

Take B3: the binding result is on record as “no binding (tested: 1 ug/ml)”.

The target of another assay is T7, WIF1 (Homo sapiens (Human), UniProt Q9Y5W5 29-379).
T7 sequence: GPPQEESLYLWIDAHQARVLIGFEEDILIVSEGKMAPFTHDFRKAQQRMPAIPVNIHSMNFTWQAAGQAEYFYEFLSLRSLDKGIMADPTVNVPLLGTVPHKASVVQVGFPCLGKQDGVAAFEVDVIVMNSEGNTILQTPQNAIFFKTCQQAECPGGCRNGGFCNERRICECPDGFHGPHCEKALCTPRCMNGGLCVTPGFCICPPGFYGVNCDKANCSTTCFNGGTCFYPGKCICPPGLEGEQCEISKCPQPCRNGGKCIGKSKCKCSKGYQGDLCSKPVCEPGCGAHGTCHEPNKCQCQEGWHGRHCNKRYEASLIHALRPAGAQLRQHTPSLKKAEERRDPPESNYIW
Nature of the assay: ELISA.
B1: the binding result was “no binding (tested: 1 ug/ml)”.

In the case of B2, the binding result is “no binding (tested: 1 ug/ml)”.

With B3, the binding result is “no binding (tested: 1 ug/ml)”.

Another assay has as its target T8, FSTL1 (Homo sapiens (Human), UniProt Q12841 21-308).
T8 sequence: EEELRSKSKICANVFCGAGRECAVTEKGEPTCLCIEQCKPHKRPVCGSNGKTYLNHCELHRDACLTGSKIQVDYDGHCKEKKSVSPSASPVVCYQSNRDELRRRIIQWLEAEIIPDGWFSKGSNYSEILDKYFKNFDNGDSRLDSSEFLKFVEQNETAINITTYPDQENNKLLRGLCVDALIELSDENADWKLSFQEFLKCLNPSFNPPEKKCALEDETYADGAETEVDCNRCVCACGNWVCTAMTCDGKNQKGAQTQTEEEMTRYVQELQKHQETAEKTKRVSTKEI
The experiment in a line: ELISA.
As for B1, the binding result is given as “no binding (tested: 1 ug/ml)”.

Regarding B2, the binding result is reported as “no binding (tested: 1 ug/ml)”.

For the molecule B3, the binding result is on record as “no binding (tested: 1 ug/ml)”.
